Experimental data from patent EP4563159A1.

B1: IgA binding peptide … (SEQ ID NO 36) (peptide)
peptide: HSVCLAYRGRPVCFPT
modifications: cyclized; carboxy terminal PEG linker and a biotin tag
B2: IgA binding peptide … (SEQ ID NO 35) (peptide)
peptide: KMVCLAYRGRPVCFPT
modifications: cyclized; carboxy terminal PEG linker and a biotin tag

Molecular target: secretory IgA from human colostrum (human) (UniProt P11912)
Experiment: solid-phase IgA binding assay (ELISA): streptavidin-peptide conjugate coated, secretory IgA from human colostrum titrated, anti-human IgA-HRP detection

Chain of UniProt P11912 (P11912 whole entry): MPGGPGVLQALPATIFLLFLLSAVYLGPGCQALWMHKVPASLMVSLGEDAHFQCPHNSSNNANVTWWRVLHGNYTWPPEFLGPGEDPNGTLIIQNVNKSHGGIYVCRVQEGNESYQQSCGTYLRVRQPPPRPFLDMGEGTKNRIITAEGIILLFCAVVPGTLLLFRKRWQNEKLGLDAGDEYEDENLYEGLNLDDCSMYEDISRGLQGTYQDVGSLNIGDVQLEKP

Binder	EC50 [nM]
B1	900
B2	900
